Paper PMC10602139, “Architecture and rearrangements of a sperm-specific Na^+/H^+ exchanger” (Research Square, 2023)

Biological target: the molecule itself
Test: cryo-EM structure; single-particle cryo-EM of purified protein in digitonin micelles; pH 8 or pH 6, NaCl or KCl; WT also with 5 mM cAMP at pH 6; C2 symmetry imposed

B1: sp9C1 R399A mutant, tag cleaved (cryo-EM sample) (natural protein, Strongylocentrotus purpuratus, UniProt A3RL54 30-1325, looked up)
chain: SSGGSGHTPTTQATHADDHDLTTHNGTEEHDDGHDDGHDDLHAHAPKVIVFISGSCLFGAISRSLFKKLPIPYTVVLLILGAILGVVASNVPLVEEHTRDVAHMDPHVLLQIFLPVLIFESAFAMDVHTFMRSFSQVCILALFGLVVASVLTAVLAMNLFNYNWNFSEAMMFGAIMSATDPVAVVALLKDLGASKQLGTIIEGESLLNDGCAIVIFNVFMKMVFFPQLTSTVGQNVLYFLQVAVAGPLWGYAVAKVTVFFLSHIFNDALVEITITLAATYLTYYIGDIWLEVSGVLAVVVLGLIVNAEKTSISPEVEVFLHRFWEMLAYLANTLIFMMVGVVVTQKALVAVDKMDWFYLIILYLAITIIAGMVISLFSPILSRIGYGLTWRNAVIMTWGGLRGAVGLALALVVENLAGNDVIGSKFLFHTAGIVVLTLVINATTIQTLLRILGMSDISIPKRLAMAGAVRRIHEGQNRTLNMLKSDRFLADADWDIATAACEISDPYSALSDDENAPADELTLGERKSVCPGCKAMVPNEPSPREFADMMEEARLRMLKAEKISYWKQFEHGMLAREALRLLVQHAEVAADEKDQFILVDDLKKSWQIKGIYPWLKRKLEDLISEKKIAAIPMPKYKLGKLMYKICHHMAFEVTINIAIVLNIVPIIMEFVVQDKMASVSTMAAPGSTVSSEPSSLQKIEDALRISNYVFFVIYAIEAIVKILGLGRHYIVSHWNKFDAFILVVALVDIIIAETLLKGSITINLSSIKVVKLFRLLRGLRMLRLTKALIPKLILVVNGKINNQLSLGYDVGKGYIIGEEEVGKIIDRMVDNKKILRELKHISETGRLQVVKELGLLQREHPGIAVSVKTRQAIRTILNHSRETIHELQGAGLLDEMEAHKLELTVEIKMKRLMNAPSSIPPPPPENLLKNVSWLAGDMKLIDFIKARASLLHFDYGEVIVREGDESDGLFLIVSGLVKLYGKSAFLDHDNPPVTAGSEENEVFEDYLTVGNVIGEMGVLTKKPRNATVTCETTVQVYFITAEDMNIAIDTFTLYPSLEYRLWRVVAIRIATPLIMEQMAFQGWTQEKVKLHLERGYLVDLAESHFQFNIDATLEDVILINGTAYNAHTREEIRSPCLISRTVHKLTFQYTATEEPRLFVVRNAEYNGPILDGRLDVDSKRSLISITEISSNMCLKHAAELRQKNSKVMLSRKSSGAAAKEEEDCIPNTSDVEQAAGVSPSVPTKTTPKPKSFLPSLGLSMSKERVNGEAVEESPVKTKQGEETPETEEGAAPRVNV
notes: SLC9C1, Strongylocentrotus purpuratus, full length with R399A; made in the background of the parent construct; source: HEK293F, transiently transfected; purified in digitonin (anti-GFP-nanobody resin, PreScission cleavage, gel filtration); not shown: mEGFP, C-terminal, cleaved; Twinstrep, C-terminal, cleaved
binding result: binds
